According to US20250009780A1, “AGENTS ENCODING CLDN6 AND CD3 BINDING ELEMENTS FOR TREATING CLDN6-POSITIVE CANCERS” (BIONTECH SE, priority 2021, published 2025):

Target: human CD3 (human) (UniProt P09693)
Test: cell-based or functional assay

Chain of human CD3 (human) (chain, as listed by the source, chain 1 of 3): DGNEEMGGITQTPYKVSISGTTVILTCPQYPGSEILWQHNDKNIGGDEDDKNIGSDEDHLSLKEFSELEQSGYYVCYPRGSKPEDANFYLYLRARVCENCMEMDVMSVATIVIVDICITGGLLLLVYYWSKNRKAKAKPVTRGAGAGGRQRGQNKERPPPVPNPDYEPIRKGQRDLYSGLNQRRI
Chain of human CD3 (human) (P09693 23-182, chain 2 of 3): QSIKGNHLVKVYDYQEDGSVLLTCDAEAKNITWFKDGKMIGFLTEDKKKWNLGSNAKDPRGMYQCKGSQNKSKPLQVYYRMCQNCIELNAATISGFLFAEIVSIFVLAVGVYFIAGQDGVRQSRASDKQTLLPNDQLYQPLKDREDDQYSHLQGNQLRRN
Chain of human CD3 (human) (P04234 22-171, chain 3 of 3): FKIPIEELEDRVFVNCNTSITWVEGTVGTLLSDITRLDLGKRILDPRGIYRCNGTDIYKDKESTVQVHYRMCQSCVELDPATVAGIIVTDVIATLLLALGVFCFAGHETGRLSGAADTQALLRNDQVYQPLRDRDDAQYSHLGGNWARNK

T-cell activation (CD69/CD25, flow cytometry, 48 h): > 50%
Substance: OKT3 antibody
